According to the nanobody polyreactivity screen of Harvey et al. (2022):

Assay: yeast display, Sf9 membrane polyspecificity reagent, FACS + sequencing; frameworks hold sequencing errors
Outline: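 Galactose-induced (36–48 hours) yeast carrying a synthetic nanobody display library were exposed to 10% biotinylated, detergent-solubilized Sf9 membrane reagent at 4 °C for 1 hour. FACS followed streptavidin microbead enrichment, using low and high (top ~1%) gates for expression (anti-HA) and reagent binding (streptavidin). Colony PCR, MiSeq 2 × 250 sequencing and CDR-length filtering followed. Labels for polyreactivity reflect the gate of origin.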

Sequence | polyreactivity (PSR sort gate)
QVQLVDSGGGLVQAGGSHRLSCAASGSTFYGNLMGWYRQAPGRERELVAAISGGCSTNYADSVKGRFTISRDNEKNTVYLQLNSLKPEDTAVYYCAARGVIRVGNAARYVAGYYWGQGTQVTVSS | high polyreactivity
QVQLVESGGGLVQAGGSLRLSCAASGFTLPVYAMGWYRQAPGKERELVARITWSAGRTYYADSVKGRFTISRDNAKNTGYLQMNSLKPEDTAVYYCAAGPVSQHHSPRPHDYWGQGTQVTVSS | high polyreactivity
QVQLVESGGGLVQAGGSLRLSCAASGRTFDHYAMGWYRQAPGKERELVAAITSGGSTYYADSVKGRFTISRDNAKNTVYLQRNSLKPEDTAVYYCNKDSSFWGYYIAQVNERDYWGQGTQVTVSS | low polyreactivity
QVQLVESGGGLVQAGGSLRLSCAASGSIFDYYAMGWDRQAPGKERELVAAISWSGGSTYYADSVKGRFTISRDNAKNTVYLHMNSLNPEDTAVYYCAADEYDYYHSRWYEYWGQGTQVTVSS | high polyreactivity
QVQLVESGGGLVQAGGSLRLSCAASGSIFVPNTMGWYRQAPGKERELVAAIRFSSGRTYYADSVKGRFTISRDNAKNTVYLQMNSLKPEVTAVYYCAADPRYSSGITYTRFYYWGQGTQVTVSS | high polyreactivity
QVQLVESGGGLVQAGGSLRLSCAASGFTFFGDYAMGWYRQAPGKERELVAAIDWSGGTTYYADSVKGRFTISRDNAKNTVYLQMNSLKPEDTAVYYCAKDYYSDGIYYEYWGQGTQVTVSS | high polyreactivity
QVQLVESGGGLVQAGGSLRLSCAASGYTFYWNVMGWYRQAPGKERELVAVIDWSGGSTHYADSVKGRFTISRDNAKNTVYLQMNSLKPEDTAVYYCAAVDIRLEWDYWFQPTYDYWGQGTQVTVSS | low polyreactivity
QVQLVESGGGLVQAGGSLRLSCAASGVIFSLYAMGWYRQAPGKERELVAVITWSDGRTYYADSVKGRFTISRDNAKNTVYLQMNSLKPEDTAVYYCAAADWITEYDYWGQGTHVTVSS | low polyreactivity
QVQLVESGGGLVQAGGSLRLSCAASGRTFYKYAKGWYRQAPGKERELVAAISWSGGSTYYADSVKGRFTISRDNAKNTVYLLMKSLKPEDTAVYYSNRASYPFVKPRYECWGQGTQVTVSS | high polyreactivity
QVQLVESGGGLVQAGGSLRLSCAASGRIITRNVMGWYRQAPGKERELVAAISTSGGSTFYADSVKGRFTISRDNAKKTVYLQMNSLKPEDTAVYYCAKRRYGKLEFWGQGTQVTVSS | high polyreactivity
QVQLVESGGGLVQAGGSLRLSCAASGRIFQDYAMGWYRQAPGKERELVAAITWSGGRTYYADSVKGRFTISRDNAKNTVYLQMNSLKPEDTAVYYCNRLTQSRLYYGPREYYYWGQGTQVTVSS | high polyreactivity
QVQLVESGGGLVQAGGSLRLSCAASGITFSSYAMGWYRQAPGKEMELVAAISYGGGNTYYADSVKGRFTISRDNAKNTVYLQMNSLKPEDTSVYYCNTLYTSYSGLDYWGQGTQVTVSS | high polyreactivity
QVQLVESGGGLVQAGGSLRLSCAPSGRIFFHYAMGWYRQAPGKERELVAAISRRGGNTYYADSVKGRFTISRDNAKNTVYLQMNRLKPEDTAVYYCAAQYRVGYDYWGQGTQVTVSS | high polyreactivity
QVQLVESGGGLVQAGGSLRLSCAASGRTFYGNAMGWYSQAPGKERELVAAITDVDSTYYADSVKGRFTISRDNAKNSVYLQMNSLKPEDTAVYYCNADTSWGYPYGYWGQGTQVTVSS | low polyreactivity
QVQLVESGGGLVKAGGSLRISCAASGSIFGPNGKGLYRQAPGKERELVSAISWNGGSTYYADSVKGRFTISRDNAKNTVYLQMNSLKPEDTAVYYCNAVQYYEFDYWGHGTQVTVSS | low polyreactivity
QVQLVESGGGLVQAGGSLRLSCAASGSIFDSYVMGWYRQAPGKERELVAAITYSGGSTYADSVKGRFTISRDNAKNTVYLQMNSLKPEDTAVYYCAADLSGGSRYDYWGQGTQVTVSS | low polyreactivity
QVQLVESGGGLVQAGGSLRLSCAASGSTLSKYAMGWYRQAPGKERELVAAISQRGGSTYYADSVKGRFTISRDNAKNTVYLQMNSLKPEDTAVYYCNALQRRYGYWGQGTQVTVSS | high polyreactivity
QVQIVESGGGLVQAGGSLRLSCAASGSTSTLNAMGWYRQAPGTERELVAAISRSGTSTYFADSVKGRFTISRDNAKNTVYLQMNSLKPEDTADYYCAAYSYGPPYYYWGQGTQVTVSS | high polyreactivity
QVQLVESGGGLVQAGGSLRLSCAASGSTFGVNDMGWYRQAPGKERELVAAISRGAITNYADSVKGRFTISRDNAKNTVYLQMNSLKPEDTAVYYCAAGFVTYYVPQYKEYGYDYWGQGTQVTVSS | low polyreactivity
QVQLVESGGGLVQAGGSLRLSCAASGSTFGVYAMGWYRQAPGKERELVATITRSGGNTYYADSVKGRFTISRDNAKNTVYLQMNSLKPEDTAVYYCAARRLYGSQRGYWGQGTQVTVSS | high polyreactivity
QVQLVESGGGLVQAGGSLRLSCAASGSTFVQNAMGWYRQAPGKERELVAAISLRGGSTYYADSVKGRFTISRDNAKNTVYLQMNSLKPEDTAVYYCAADVSQRDGSVRGYDSWGQDTQVTVSS | high polyreactivity
QVQVVESGGGLVQAGGSLRLSCAASGITFFLNAMGWYRQAPGKERELVAAISSGAGTTYADSVKGRFTISRDNAKNTFFLQMKSLKPEDTAVYYCAAAGDYVVPISSTAGFGGDYWGQGTQVTVSS | low polyreactivity

Sequence | polyreactivity (PSR sort gate)
QVQLVESGGGLVQAGGSLRLSCAASGNTFAGNAKGCYRQAPGKERELVAAISRSGVTTRYADSVKGRFTISRDNAKNTVYLQMNSLKPEDTAVYYCNADPRLRQTRDYWGQGTQVTVSS | high polyreactivity
QVQLVESGGVLVQAGGSLRLSCAASGSTFVTNAMGWYRQAPGKEREFVAAISNSSGSTYYADSVKGRFTISRDNAKNTVYLQMNSLKPEDTAVYYCNATPDDWLQEDYWGQGTQVTVSS | low polyreactivity
QVQLVESGGGLVQAGGSLRLSCAASGFTIYKYAMGWYRQPPGKERELVAAITGRGGSTNYADSVKGRFTISRDTAQNTVYLQMNILKPEDTAFYYCAARTPSYEMDYWGQGTQVTVSS | high polyreactivity
QVQLVESGGGLVQAGGSLRLSCAASGSIFRYNAMGWYRQAPGKERELVAAISGRGTSTYYADSVKGRFTISRDNAKNTVYLQMNSLKPEDTAVYYCAAVYFRTFLVEYYYWGQGTQVTVSS | high polyreactivity
QVQLVESGGGLVQARVSLRLSSAASGFIIYPYVMGWYRQAPGKERELVATIRTDGRTSYADSVKGRFTISRDNAKNTFYLQMNSLKPEDTAVYYCDARSPLYYIVPYELVQYDYWGLGTQVTVSS | high polyreactivity
QVQLVESGGGVVQAGGSLRLRCAASGSTVLGYVMGWYRQAPGKERELVAAITRSGGRTYYADSVQGRFTISRDNAKNTVSLQMNSLKPEETAVYYCAALRGPSFHGYGYWGQGTQVTVSS | high polyreactivity
QVQLVESGGGLVQAGGSLRLSCAASGYSFYYYAMVWYRQAPGKERELVAAITSGDSTYADSVKGRFTISRDNAKNTVYLQMNSLKPEDTAVYYCNRDTDYGFDYWGQGTQVTVSS | low polyreactivity
QVQLVESGGGLVQAGGSLRLSCAASGSTFTVNAMGWYREAPGKERELVAAITTSGGSTYYADSVKGRFTISRDNAENTVYFQMNSLKPEDTAVYYCNADGPWREVERPFRKEGNYWGQGTQVTVSS | low polyreactivity
QVQLVESGGGLVQAGGSLRLSCAASGSIFAIYAMGWYRQAPGKERELVAAISSSSGSTYYADSVKARFTISRDNAKNTVYLQMYSLKPEDTAVYYCAAESGRRIKYWRGYYYWGQGTQVTVSS | low polyreactivity
QVQIVESGGGLVQAGGSLRLSCAASGSIFSVYAMGWYRQAPGKERELVAGINRRTGITYYADSVKGRFTISRDNAKNTVYLQMNSLKPEDTAVYYCAADPYVKYNYWGQGTQVTVSS | low polyreactivity
QLQHVESGGGLVQAGGSLRLSCAASGYIFPVNAMGSYRQAPGKERELVASLTSGGSTYYADSVKGRFTISRDNAKNTVYLQMNSLKPEDTAVYYCAAQLGYAKPYVYGEWYYYWGQGNQVTVSS | low polyreactivity
QVQLVESGAGLVQAGGSLRLSCASSGRTCDFYAMGWYRQAPGKERELVAAISSSCGSTYYADSVKGRFTISRDNAKNTVYLQMNSLKPEDTAVYYCAKDGRVHSPYDYWGQGTQVTVSS | low polyreactivity
QVQLVESGGGLVQAGGSLRLSCAASGRIFYGNTMGWYRQAPGQERELVATITRSGGSTYYADSVKGRFTISRDNAKNTVYLQMNNLKPEDTAVYYCAVGYWRLFPYGYWGQGTQVTVSS | high polyreactivity
QVQLVESGGGLVQAGGSLRLSCAASGFTIRYYALGWYRQAPGKERELVAAISRGGSTTYADSVKGRFTISRDNAKNTVYLQMNSLKPEDTAVDYCAVYSKWSVTYDYWGQGTQVTVSS | high polyreactivity
QVQLVESGGGLVQAGGSLRLSCAASGSILALYTMGWYRQAPGKEREFVATITSSDGSTYYADSVKGRFTISRDNAKNTVYLQMNSLKPEDTAVYYCNARGSVYYLKFDYWGQGTQVTVSS | low polyreactivity
QVQLVESGGGLVQAGGSLRLSCAASGSIFYEYDMGWYRQAPGKERELVAALDGSADSTYYADSVKGRFTISRDNAKNTVYLQMNSLKPEDTAVYYCNTRYFRWDTEYGYWGQGTQLTVSS | low polyreactivity
QVQLVESGGGLVQAGGSLRLSCAASGRIYRNAMGWYRPAPGKERELVAAISSRGASTYYADSVKGRFTITRDNAKNTVYLQMNSLKPEDTAVYYCAARTSSSSGYYAREYWGQGTQVTVSS | high polyreactivity
QDQHVESGGGLVQAGGSLRLSCAASGFTIRNYAMGWYRQAPGKVMELVPAISKRGGNTYYADSVKGRFSISRDNAKNNVYLQLNSLKPEDTAVYFCAADYQFSQDVWHFGYCGQGTQVTVSS | high polyreactivity
QVQLVESGVGLVQAGGSLRLIWAASGSTFVKNVMGWYRQAPGKERELVAGITRGGSTYYADSVKGRFTISRDNAKKTVYLQMNSLKPEDTAVYYCAKRYAWDRDYWGQGTQVTVSS | high polyreactivity
QVQLVESGGGLVQAGGSLRLSCAASGSIFDPYAMGWYRQAPGKERELVAAISFRGGGTYYADSVKGRFTISRDNAKNTVYLQMNSLKPEDTAVYYCNVDYYWISGYVGSYIEFDYWGQGTQVTVSS | low polyreactivity
QVQLVESGGGLVQAGGSLRLSCAASGFIFGYYAMGWYRQAPGKERELVAAISGDAGRTYYADSVKGRFTISRDNAKNTVYLQMNSLKAEDTAVYYCAAADTYKMDYWGQGTQVTVSS | low polyreactivity
